{"source": "paper PMC2944810", "target": "GFP:2B (Grapevine fanleaf virus movement protein 2B fused to EGFP) (Grapevine fanleaf virus)", "experiment": "FRET or BRET; FRET-FLIM in living N. benthamiana leaf epidermal cells after transient co-expression by agro-infiltration; GFP fusion of the movement protein as donor, RFP fusion as acceptor; fluorescence lifetime of the donor measured at tubules or plasmodesmata"}
{"substance": "GFP:2B (Grapevine fanleaf virus movement protein 2B fused to EGFP) (natural protein)", "values": [{"measurement": "mean FRET (percent)", "result": 24, "unit": "%"}]}
